Measurements as given in patent publication US7981997B2, “Growth factor which acts through ErbB-4 RTK” (Yeda Research And Development Co., priority 2000, dated 2011).

What was measured:
[1] = biological target: T1, IgB-2 (soluble ErbB-2) (Homo sapiens, UniProt P04626); assay: Covalent crosslinking of radiolabeled ligands to soluble ErbB-IgG fusion, cell-free; type: binding; details: 125I-labeled ligand, BS3 crosslinking
T1 construct: Recombinant soluble extracellular domains of the four ErbB proteins (denoted IgB-1 through 4); made in house; host or cells: HEK-293 human embryonic kidney cells (conditioned medium)
Method: The four soluble forms of ErbB proteins, in the form of IgG fusions (denoted IgB-1 through 4), were separately incubated with the indicated radiolabeled growth factors. Where indicated (lower panel), an excess (100-fold) of unlabeled NRG-4 was co-incubated with the labeled ligand. Following 2 hours at 22° C., the covalent crosslinking reagent bis(sulfosuccinimdyl)-suberate (BS^3) was added (1 mM) and 45 minutes later the ligand-receptor complexes were immunoprecipitated with agarose-immobilized protein-A beads. Arrows mark the locations of monomeric (M) and dimeric (D) receptor complexes.
Growth factors were labeled with Iodogen (Pierce) as described (Karunagaran et al., 1995). Chemical crosslinking to Chinese Hamster Ovary (CHO) cells engineered to express different ErbB combinations have been performed essentially as described (Tzahar et al., 1996). Briefly, radiolabeled ligands (at 100 ng/ml) were incubated for 2 hours with cell monolayers at 4 C. The chemical crosslinking agent BS^3 (1 mM) was then added and the cells were further incubated for 45 minutes at 22 C. Mouse antibodies were first coupled to rabbit anti-mouse IgG and to protein A-Sepharose beads, and then they were incubated with cell extracts for 2 hours at 4 C. Immunoprecipitated complexes were then washed three times with ice-cold SBN buffer (1% NP-40; 150 mM NaCl; 10% Glycerol; 1 mM EGTA, in 50 mM Tris-HCl, pH 7.4; 1 ml per wash) prior to heating (5 minutes at 95 C) in gel sample buffer, resolution by gel electrophoresis, transfer to nitrocellulose and autoradiography. For crosslinking with IgBs, after co-incubation of IgB-containing conditioned media with radiolabeled ligands, complexes were immunoprecipitated directly with Sepharose-protein A beads. For ligand displacement analyses, cell monolayers were washed once with binding buffer, and then incubated for 2 hours at 4 C with radiolabeled […] (5 ng/ml) and various concentrations of unlabeled ligands, as indicated. Non-specific binding was determined in the presence of a 100-fold molar excess of the unlabeled ligani. Cells were then washed, lysed in a solution containing 0.1 M NaOH and 0.1% SDS, and radioactivity determined by use of a gamma counter.
In the first assay, binding studies in a cell-free system were performed with recombinant soluble forms of all four ErbB proteins. The soluble proteins, denoted IgB-1 through 4, consist of a dimeric fusion between the extracellular domain of the corresponding ErbB and the Fc portion of a human immunoglobulin G (Chen et al., 1996).

[2] = tested on: 180-kDa ErbB receptors and MAP-kinase (Erk-1 and Erk-2) in D24 cells; assay: Tyrosine phosphorylation and MAPK activation, immunoblotting; type: cell-based; details: 100 ng/ml, five minutes
Method: (§1) Derivatives of 32D cells expressing ErbB-4, either alone (D4 cells) or in combination with ErbB-2 (D24 cells) were incubated for 5 minutes at 37° C. with either NRG-4 or NRG-1β (each at 100 ng/ml). Whole cell extracts were then prepared, resolved by gel electrophoresis, and transferred to a nitrocellulose filter. The upper portion of the filter was immunoblotted with antibodies to phosphotyrosine (P-Tyr, the 150-200 kDa region is shown) or an antibody directed at the activated doubly phosphorylated form of the MAPK (Erk1 and Erk2, the 40-50 kDa region is shown). Antibodies were incubated with a secondary reagent coupled to horseradish peroxidase, allowing subsequent detection by chemiluminescence.
(§2) For receptor activation studies, derivatives of the 32D cell line were resuspended in phosphate-buffered solution (PBS) and incubated at 22 C for 15 minutes before adding growth factors and incubating for five minutes at 37 C. Cells were then pelleted and lysed in ice cold solubilization buffer [50 mM Tris-HCl pH 7.5, 150 mM NaCl, 1% Nonidet-P40, 0.5% Na-deoxycholate, 0.1% sodium dodecyl sulfate (SDS), 1.5 mM EDTA, 1.5 mM MgCl2, 2 mM Na-orthovanadate, 1 mM phenylmethylsulfonyl fluoride (PMSF), 10 µg/ml aprotinin and 10 µg/ml leupeptin] and left on ice for 15 minutes. The whole cell extract was then cleared by centrifugation (12,000×g for 10 minutes at 4 C), immediately boiled in reducing gel sample buffer, and resolved by 10% SDS PAGE before being transferred onto nitrocellulose. Filters were blocked in TBST buffer (0.02 M Tris-HCl pH 7.5, 0.15 M NaCl, 0.05% Tween-20) containing 1% milk for 40 minutes at 22 C, blotted with primary antibodies in TBST overnight at 4 C, followed by conjugation with a secondary antibody linked to horseradish peroxidase and subsequent detection by chemiluminescence (Amersham Corp.).
(§3) Evidently, NRG-4 binds to ErbB-4 and mediates cell proliferation through activation of this receptor. Because other ErbB ligands stimulate cell growth via tyrosine phosphorylation of their respective receptors and activation of the intervening mitogen-activated protein kinase (MAPK) cascade, these two signaling steps were tested in NRG-4-responsive myeloid cells expressing ErbB-4 (D4 and D24 cell lines). Cells were stimulated with 100 ng/ml of activating ligand for five minutes, followed by lysis and analysis by immunoblotting.

[3] = tested on: 180-kDa ErbB receptors and MAP-kinase (Erk-1 and Erk-2) in D4 cells; assay: as above; type: cell-based; details: 100 ng/ml, five minutes
Method: as §1, §2, §3

[4] = tested on: D1 cells; assay: as above; type: cell-based; details: doses as high as 1 μg/ml
Method: as §2, §3

[5] = tested on: D12 cells; assay: as above; type: cell-based; details: doses as high as 1 μg/ml
Method: as §2, §3

[6] = tested on: D13 cells; assay: as above; type: cell-based; details: doses as high as 1 μg/ml
Method: as §2, §3

[7] = tested on: D2 cells; assay: as above; type: cell-based; details: doses as high as 1 μg/ml
Method: as §2, §3

[8] = tested on: D23 cells; assay: as above; type: cell-based; details: doses as high as 1 μg/ml
Method: as §2, §3

[9] = tested on: D3 cells; assay: as above; type: cell-based; details: doses as high as 1 μg/ml
Method: as §2, §3

B1: NRG-4: synthetic refolded mouse EGF-like domain of NRG-4 (residues 4 to 50, SEQ ID NO:2) (peptide, listed as Mus musculus)
chain: MPTDHEQPCGPRHRSFCLNGGICYVIPTIPSPFCRCIENYTGARCEEVFLPSSSIPSESNLSAAFVVLAVLLTLTIAALCFLCRKGHLQRASSVQCEISLVETNNTRTRHSHREH
Q: B1 was tested. Which “binding to IgB-2 (covalent crosslinking signal)” value [1] did it give?
A: low or no binding

Q: What about the “activation of MAP-kinase (Erk-1 and Erk-2), D24 cells” value [2] of the same molecule?
A: accompanying activation of MAP-kinase

Q: What about the “phosphorylation of the 180-kDa ErbB receptors, D24 cells” value [2] of the same molecule?
A: stimulated phosphorylation

Q: And the “activation of MAP-kinase (Erk-1 and Erk-2), D4 cells” value [3]?
A: accompanying activation of MAP-kinase

Q: And the “phosphorylation of the 180-kDa ErbB receptors, D4 cells” value [3]?
A: stimulated phosphorylation

Q: And the “stimulation of D1 cells” value [4]?
A: did not stimulate

Q: And the “stimulation of D12 cells” value [5]?
A: did not stimulate

Q: What about the “stimulation of D13 cells” value [6] of the same molecule?
A: did not stimulate

Q: What about the “stimulation of D2 cells” value [7] of the same molecule?
A: did not stimulate

Q: And the “stimulation of D23 cells” value [8]?
A: did not stimulate

Q: What about the “stimulation of D3 cells” value [9] of the same molecule?
A: did not stimulate
